Measurements as given in the DeepSol protein solubility set.

Experiment: soluble on expression in E. coli; label from the status in PepcDB or PDB records

Sequence	soluble on expression in E. coli
MGSDKIHHHHHHMRALSFIFIALILVGCNEPAKEITKPIRPIMWTKVKISPFEQIRTLSGIVAPVEATKLSFEVQGKIQTIEVNLGNEVVKGQELARLNQRNFNLGLQSAQAQYQQAKATLIDARNSHRRYEQLLKQGVVSQSGFDNAKATYDASKSAADVAQAQLDIASKNLQDSILLAPYDGIITKRLYEPSQQISAGQSLFEIEGKHGLEVHVMVPETLIRELRQLSILPIHFPVLPELTMQGQITEIGTRAEYANAFPVTAVLEGDNPLLRAGMTAEVDFSFSGTGRTGHTGDVFRIPATALSAGLEQKAYVFVYNPDSQQVIKTQVQTENIFKNEVFISSGLKQGDIIAIAGVAFLRDGQQVSLTDNNVQRFN	not soluble
MNTKFLGKTLVASALVLTTLGTGLHSSYLGLDTNKVVKTAKAEEKMTDGQLWKKVKDSLHDSDIILSNEYETINVTYLLSNGYSSSVSAPGNDDGGHLTQSIDFKGLKQIDLTKENVYDDFNKKLDAKNTWNSLTEKLKGLGLLQNGQKVSIYSSDSSSPVSGKVGEGVTSGGENTLTKRFINKITID	not soluble
MGSDKIHHHHHHMRILISPPMRFGKEFLGGMRRTLEVYSRMGEEVYLCVDERTLPQVDPEISPLLSKFHLVSSSSTDKKTYLKGFLNCLKYARKVDVLISYSEYSLSVYYTWLLSLFSRKPFIVVVHHVTEEIRGSKFLRTVIARSKGIICLDNPEVYEELKSLFPNKVILTSTNGVSVEDYYTSEEKICDGIFVGNYGERKGSRYLFQIWDKVNEKIDAKLCIIGKGWSEIPKNSVYYGFVTEREKIDLLAKSKVFVFPSLYEGFALAVTEALSAYLPVVTWDLKWSERYPVAIRVTYPDISSFAEEVVKLLKDEKLRKSIGEKSRELAKTLNWEKAAEMEKKAIYKIMESK	not soluble
MIQIEDVVVSFDVLREKFLCNLDACKGECCIEGDAGAPVELDEVEKLEEVLPIIWEELSPEARAVIEKQGVVYTDQEGDLVTSIVNNKDCVFTCYDEKGCCYCAIEKAYRDGKTDFYKPVSCHLYPIRIGDYGPYKAVNYHRWDVCKAAVLLGKKENVAVYQFLKEPLIRKFGEKWYQELEVAVKELKAHDMI	not soluble
MNIHEIRKQFPILDQKVNGKQLVYFDSAATSQKPIQVIETLERYYKEYNSNVHRGVHTLGTKATDAYEGAREKVRKFINAKSMEEIIFTCGTTTALNTVAASYGLENVKEGDEIVISYMEHHSNIIPWQQVAKKTGATLKYLPLQPDGTISIEDARQTITPNTKIVSIMYVSNVLGTINPVKEIGAIAHENGAIMVVDGAQSTPHMKVDVQDLNCDFYALSAHKMCGPTGIGVLYGKKELLNNMEPIEFGGEMIDFVDLQESTWKELPWKFEAGTPIIGNAIGLGAAIDFLEEIGLDNIEKHEHELAQYALERLSEVDGVTIYGPKHRAGLVTFNIEDVHPHDVATVLDVEGIAVRAGHHCAQPLMKWLKASSTARASFYLYNTKEEIDTFVESLIKTKEYFTNVI	not soluble
GGAFTWDTDFNISFNRNKLTKLELQKVYYDAKTADVVNDYVVRNEPGRALGGFYGYISDGVDPETGELMYRDLSGDGKISTSDRTYIGDPNPDFTYGLTNTFSWKGFNLSVFIQGSYGNDIFNASRIETEGMYDGKNQSTKVLNRWKIPGQITNVPKANFKLLNSTYFIEDGSYLRLKDVSLSYNFKGKLLQKWGITRLQPYFTATNLLTWTSYSGMDPEVNQWGNSGTVQGIDWGTYPHSRSYVFGINVEF	not soluble
ELLPEIFRQTVEHAPIAISITDLKANILYANRAFRTITGYGSEEVLGKNESILSNGTTPRLVYQALWGRLAQKKPWSGVLVNRRKDKTLYLAELTVAPVLNEAGETIYYLGMHRDTSELH	soluble
SFGCLVAGRLVQTAAQQVAEDKFVFDLPDYESINHVVVFMLGTIPFPEGMGGSVYFSYPDSNGMPVWQLLGFVTNGKPSAIFKISGLKSGEGSQHPFGAMNIVRTPSVAQIGISVELLDSMAQQTPVGNAAVSSVDSFTQFTQKMLDNFYNFASSFAVSQAQMTPSPSEMFIPANVVLKWYENFQRRLAQNPLFWKT	soluble
GDLLVVTLENITEAKQGEISLNAALHAAEKQERLYNSITNNTPDLVYVFGLDYSFTYANKALLTMWGKTAEEAIGKGLRENGYEEWHAQMHEREIDEIKATKKSIRGTVSFPHAELGSRMYDYILVPVLNESGEVEAIAGTTRD	not soluble
MGSDKIHHHHHHMRTLKVLHLASFDGNIGDNANHNGVRFLWKKYLPEYDFAITPLEMREYFWKWKSFDDGFADMVNEYDLFVCGGGNYFELWVQSSPTGTSVAIPLEVLRKIKTPCLFYALGLDPYMGAPDICIERFKRFLDYTLASPQFLVSVRNDGSLDSARRVLGGEYADRIHLMPDGGHFVQPEACTHYELTPGARTIGVNLAGDMLDFRFKSCNGKNLNDFKRSTAAVLCDIMRRMPDVNLIFYPHIHKDYSFLADFICGIDDHLLRRRITVAPYLHGQGAERKFFDLYRQCALNIGTRLHANICSVGLKTPSIGIVTHEQIHELYGYYGMAERALRFSDDNYAAKLDDLISDSLENTERISCRYSDVMSMVTKDAERFLGIMNCWLDSVV	not soluble
MDNILNYPTSTHVDRLVPKTAFYKHLEINTRLKMRFVEDVERIQWLYKLAPSTMNVDTGKTVHEIVMFLVTLKAEDMPDDVFLAIDRQMPRHVVFVLQYANRGRLLLNYKEWVDANKTRFNILKTFRTEWMPLAKVKLELAGSSLDNIYEAFAGQISGFGTTNAADTKQIMALQDELARKRRAAEALQKRVRNERQFAKQMELNSEARALKREIAKLEEVLKTLENN	not soluble
MKGGIVHSDGSYPKDKFEKINGTWYYFDSSGYMLADRWRKHTDGNWYWFDNSGEMATGWKKIADKWYYFNEEGAMKTGWVKYKDTWYYLDAKEGAMVSNAFIQSADGTGWYYLKPDGTLADRPEFTVEPDGLITVK	soluble
MLDWEQIFATRSSRMKASEIRELLKLLEQPDIISFAGGIPDPALFPAEEFQQAYAEIFSGAQVNAALQYSVSEGYKPLREWLAGEMDKIGIDCTADNVFIVSGSQQGLDYLGKLFLSPKDTALVTWPTYLGALSAFNAYEPNYDQLNPGGNRTPEAYRETAAKLGGAVKFAYLSADFSNPTGETVDLAGREKVLALADELDIAVIEDAAYQSLRYDGEAVPPIMALDIARSGGIENTRTIYCGSFSKTLAPGLRVGYIVASAPVIRKLVLMKQAADLHSSTINQIAIERVAARGFDKQVAKIKAAYSARRDAMLSALEKYMPKTTSWTKPEGGMFIWVTLPEGMDGAALLAKSIATEKVAFVPGRAFFADGSGTNTLRISFSCANEAMIEEGMKRLGRLITTAQAETTEVLAAI	not soluble
MGCEPKRDCGCCQNSICEFLQSLEPYTKVESIIIAGNEIAVSYFLSFNKKTGIVSFVQEDNEVIFVDCSKIDAIRIGKVCSCKTKVKYIEEDFSLLGNVCPHCLTEGSTIFFDFNNPELNVSFQATTINPPRCTEFTDDLGNVVKQITIVGEAKVSRDFVQVPELVGFRLLLSHLAGDPLNYGLLFINFPDTIFIFILASSGYLSISNCLKIEGGTGDAEIEEMKKMIEDDVNTYKSVVKLTKVYKNGETESFIYKNEL	not soluble
MANDGYFEPTQELSDETRDMHRAIISLREELEAVDLYNQRVNACKDKELKAILAHNRDEEKEHAAMLLEWIRRCDPAFDKELKDYLFTNKPIAHE	soluble
GSKKKVKELKVLDSKTAQNLSIFLGSFRMPYQEIKNVILEVNEAVLTESMIQNLIKQMPEPEQLKMLSELKEEYDDLAESEQFGVVMGTVPRLRPRLNAILFKLQFSEQVENIKPEIVSVTAACEELRKSENFSSLLELTLLVGNYMNAGSRNAGAFGFNISFLCKLRDTKSADQKMTLLHFLAELCENDHPEVLKFPDELAHVEKASRVSAENLQKSLDQMKKQIADVERDVQNFPAATDEKDKFVEKMTSFVKDAQEQYNKLRMMHSNMETLYKELGDYFVFDPKKLSVEEFFMDLHNFRNMFLQAVKENQKRRETEEKMRRAKLAKEKAEKERLEKQ	soluble
MGSDKIHHHHHHMEVLYRKYRPKTFSEVVNQDHVKKAIIGAIQKNSVAHGYIFAGPRGTGKTTLARILAKSLNCENRKGVEPCNSCRACREIDEGTFMDVIELDAASNRGIDEIRRIRDAVGYRPMEGKYKVYIIDEVHMLTKEAFNALLKTLEEPPSHVVFVLATTNLEKVPPTIISRCQVFEFRNIPDELIEKRLQEVAEAEGIEIDREALSFIAKRASGGLRDALTMLEQVWKFSEGKIDLETVHRALGLIPIQVVRDYVNAIFSGDVKRVFTVLDDVYYSGKDYEVLIQEAVEDLVEDLERERGVYQVSANDIVQVSRQLLNLLREIKFAEEKRLVCKVGSAYIATRFSTTNVQENDVREKNDNSNVQQKEEKKETVKAKEEKQEDSEFEKRFKELMEELKEKGDLSIFVALSLSEVQFDGEKVIISFDSSKAMHYELMKKKLPELENIFSRKLGKKVEVELRLMGKEETIEKVSQKILRLFEQEG	not soluble
MNVTSVTSEDGVKEFEKIVVEPEDIEYVEIPADAKNVDLTRHRIKEIGDYSWLTHVEHFSFRWNLIKKIENLDCLTTLTHLEFYDNQITKVENLDSLVNLESLDLSFNRITKIENLEKLTKLKTLFFVHNKITKIEGLDTLTELEYLELGDNRIAKIENLDNNLKLDRLFLGANQIRLIENVDHLKKLTVLSLPANAITVVDNISGLHNLKEIYLAQNGIKYVCGIDEHLPLEILDFNQNRLEKVENIHQLKTLTDFWARGNKLDNWSIMDELVELPQLNSVYLDFNPIASVDTYRGKVIHLLQQITRLDGTQCREHSMLRPPKEEKNETELSRVVLDNPSDDHPTESV	not soluble
MGEHKQNLSLQDMTHSDTGQIAYLKKVCTDDLAKNFPDLPPMTPGITVWALFGETGYPIILSDERSIALAGANEHELQIVTLH	not soluble
MGSDKIHHHHHHMLSRFARQLALPVFNGVLHPTRATSSIAHTIKVAHKIDETREKALLGGGKKRVDAQHARGKLTARERIDLLLDRNTFREYDMFAEHTCNDFGMQKEKYPGDSVVTGRGEINGRTVFVFSQDFTVFGGSLSSIHAKKIVKIMREAMLVGAPVIGLNDSGGARIQEGVESLAGYADIFQENVMASGVVPQISMIMGPCAGGAVYSPALTDFTFMVRDTSYLFITGPDVVKAVTNEEVTQEELGGAKTHTVTSGVAHGAFDNDVDALMSLRELFNYLPLSNTDAAPIRAAEDPWDRAVPSLDTVVPLESTAAYNMKDVVHALVDEGDFFEIMPDYAKNLVIGFARMNGRTVGIVGNNPKFAAGCLDINSSVKGARFVRFCDAFNIPIITLVDVPGFLPGTAQEYGGIIRHGAKLLYAFAEATVPKITIITRKAFGGAYDVMSSKHLRGDINYAWPTAEVAVMGAKGAVSILFRNDKEHAVQHEEEYTELFSNPFPAAVRGFVDDIIIPSETRKKVCEDLNMLESKKLKNPWKKHGNIPL	not soluble
MLLHTFFDDSKTSVEETPRMFVARLFGSPVSTSIIPTEKESINNNNQETAKMPLDPMDSLWMSKAPQVSDLVVQPNVTFKAVTGGSPHSPSASIPIAGADDSIRPDYDTDCLWKPPTRSARVQKERTISMDSTDSEIGALGGRKFSTNEGASPAPTSPIDAQPRARRMSISEMLFGSSPKSFSWGMESNTTNTTTTSNSGGGDIGERKMSITDDPRFKDFMKHQSKIIGDDGISAAGFKRSNYMKD	not soluble
MLNIFTTISKINITSLAIGCFDGMHLGHLKLVKCLDENGALLVINKFKGQFLCSNRQKEEISGKKVIEVDFESIKSLDGRDFLSFLKKEFVNLKFIVVGYDFSFGKNRAYNAKDIESLSGIKTIIVDEFSIDGIGVHASLIKDFLSKANLQKAKEFLGRDYSIKGKMIKGQGLGSKELFATINLDCEGYFLPQNGVYVTLLKSQRKTYKSVSFLGVRSSDENFAIESHILEELGENFTQGEFFELEFISFLRENQKFQDLKKLKNQIAKDIEQARELLRKNDER	not soluble
